This note sets out measurements from publication PMC6175878, “ROS-induced R loops trigger a transcription-coupled but BRCA1/2-independent homologous recombination pathway through CSB” (Nature Communications, 2018).

The target of one series is 6H-Flag-CSB (human) (UniProt Q03468). Description: SEC; Superdex 200 in Buffer B (25 mM Tris-Cl pH 7.5, 10% glycerol, 0.5 mM EDTA, 500 mM KCl, 0.01% IGEPAL, 1 mM DTT), 4 °C; last step of the purification.
A further series has as its target GST-CSB-CTD (human, UniProt Q03468 1200-1493). The series can be described thus: EMSA; 1 mM Mg2+; EMSA: 25 mM Tris-HCl pH 7.5, 1 mM MgCl2, 1 mM DTT, 50 ug/mL BSA, 50 mM NaCl, 15 min 37 C, 6% PAGE-TBE at 4 C; pull-down: 20 mM Tris-HCl pH 7.5, 50 mM NaCl, 2 mM MgCl2, 0.1% Tween-20, 30% glycerol, RNase 0.2 U/uL (so in the source). The settings on record: protein: recombinant; tags: GST (N-term, pGEX-4T); label: 5' maleimide-IR800 on oligo 1 (RNA); blunt. A general note: Mobility shift assays separate free from complexed probe on a gel.

In another series the target is GST-CSB-AD (human, UniProt Q03468 337-509). The description is as above. The settings on record: protein: recombinant; tags: GST (N-term, pGEX-4T-3); label: 5' maleimide-IR800 on oligo 1 (RNA); blunt.
Another series concerns the target T1, RAD52 (human, UniProt P43351 1-418).
T1 sequence: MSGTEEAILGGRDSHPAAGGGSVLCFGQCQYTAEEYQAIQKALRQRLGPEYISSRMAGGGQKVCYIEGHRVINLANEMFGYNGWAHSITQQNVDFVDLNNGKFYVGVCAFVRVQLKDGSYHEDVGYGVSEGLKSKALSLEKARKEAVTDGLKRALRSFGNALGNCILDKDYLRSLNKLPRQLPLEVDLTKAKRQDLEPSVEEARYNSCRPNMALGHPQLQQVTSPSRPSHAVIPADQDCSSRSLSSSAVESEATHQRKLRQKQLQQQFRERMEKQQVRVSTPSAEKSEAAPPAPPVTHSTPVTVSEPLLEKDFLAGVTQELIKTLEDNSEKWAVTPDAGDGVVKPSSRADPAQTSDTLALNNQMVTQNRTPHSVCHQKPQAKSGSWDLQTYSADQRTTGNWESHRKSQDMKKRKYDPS
Description: EMSA; 1 mM Mg2+; lower affinity than CSB-FL; EMSA: 25 mM Tris-HCl pH 7.5, 1 mM MgCl2, 1 mM DTT, 50 ug/mL BSA, 50 mM NaCl, 15 min 37 C, 6% PAGE-TBE at 4 C; pull-down: 20 mM Tris-HCl pH 7.5, 50 mM NaCl, 2 mM MgCl2, 0.1% Tween-20, 30% glycerol, RNase 0.2 U/uL (so in the source). The settings on record: protein: recombinant; tags: C-terminal 6xHis; label: 5' maleimide-IR800 on oligo 1 (RNA); blunt.

The target of series [1] is 6H-Flag-CSB full length (CSB-FL) (human, UniProt Q03468 1-1493). Description: EMSA; 1 mM Mg2+; much higher affinity than RAD52; EMSA: 25 mM Tris-HCl pH 7.5, 1 mM MgCl2, 1 mM DTT, 50 ug/mL BSA, 50 mM NaCl, 15 min 37 C, 6% PAGE-TBE at 4 C; pull-down: 20 mM Tris-HCl pH 7.5, 50 mM NaCl, 2 mM MgCl2, 0.1% Tween-20, 30% glycerol, RNase 0.2 U/uL (so in the source). As to conditions: protein: recombinant; chain copies: 2; label: 5' maleimide-IR800 on oligo 1 (RNA); blunt.
Sequence of 6H-Flag-CSB full length (CSB-FL) (Q03468 whole entry): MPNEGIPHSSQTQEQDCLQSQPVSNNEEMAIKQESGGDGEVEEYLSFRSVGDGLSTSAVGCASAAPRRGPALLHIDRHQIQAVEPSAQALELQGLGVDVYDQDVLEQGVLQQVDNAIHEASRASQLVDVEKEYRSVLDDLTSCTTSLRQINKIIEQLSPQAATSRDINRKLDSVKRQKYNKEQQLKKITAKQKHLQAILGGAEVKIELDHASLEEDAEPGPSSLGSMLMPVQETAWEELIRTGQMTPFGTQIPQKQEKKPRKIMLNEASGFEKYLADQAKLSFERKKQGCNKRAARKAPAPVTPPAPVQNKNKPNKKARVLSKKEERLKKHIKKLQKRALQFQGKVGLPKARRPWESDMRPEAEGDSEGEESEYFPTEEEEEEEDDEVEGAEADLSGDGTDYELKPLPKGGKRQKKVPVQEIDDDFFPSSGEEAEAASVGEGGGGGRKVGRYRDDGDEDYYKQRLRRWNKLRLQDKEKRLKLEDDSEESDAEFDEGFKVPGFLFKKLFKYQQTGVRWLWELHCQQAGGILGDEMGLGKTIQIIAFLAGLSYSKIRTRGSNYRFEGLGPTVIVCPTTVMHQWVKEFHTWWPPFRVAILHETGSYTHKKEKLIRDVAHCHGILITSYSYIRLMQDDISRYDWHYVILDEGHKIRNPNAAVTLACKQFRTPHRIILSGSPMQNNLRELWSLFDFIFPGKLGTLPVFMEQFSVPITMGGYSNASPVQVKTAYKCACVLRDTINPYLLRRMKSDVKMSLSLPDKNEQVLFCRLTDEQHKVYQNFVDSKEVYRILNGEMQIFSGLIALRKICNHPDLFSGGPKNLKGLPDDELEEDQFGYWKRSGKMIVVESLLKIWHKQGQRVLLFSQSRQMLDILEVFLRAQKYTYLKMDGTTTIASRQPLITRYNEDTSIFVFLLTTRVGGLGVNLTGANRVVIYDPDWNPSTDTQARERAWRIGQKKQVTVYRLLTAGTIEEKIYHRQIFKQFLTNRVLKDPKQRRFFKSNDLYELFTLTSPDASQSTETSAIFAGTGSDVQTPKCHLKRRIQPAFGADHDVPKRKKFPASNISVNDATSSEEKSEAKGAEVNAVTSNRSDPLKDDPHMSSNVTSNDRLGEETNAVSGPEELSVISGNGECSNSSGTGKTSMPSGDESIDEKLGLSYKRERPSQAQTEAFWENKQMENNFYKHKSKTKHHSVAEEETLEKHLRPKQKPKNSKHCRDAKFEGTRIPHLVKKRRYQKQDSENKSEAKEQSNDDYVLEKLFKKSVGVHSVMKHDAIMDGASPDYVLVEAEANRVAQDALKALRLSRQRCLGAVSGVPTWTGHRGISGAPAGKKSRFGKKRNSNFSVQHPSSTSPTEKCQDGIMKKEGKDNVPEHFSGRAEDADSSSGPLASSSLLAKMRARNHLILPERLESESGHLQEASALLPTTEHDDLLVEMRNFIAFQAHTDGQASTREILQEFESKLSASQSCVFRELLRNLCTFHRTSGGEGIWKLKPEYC

Series [2] concerns the target T2, hRAD52 with a C-terminal 6x-his tag (human, UniProt P43351 1-418).
T2 construct: RAD52, human (hRAD52), from pET28b-RAD52; also called His-RAD52; RAD52 protein; source: E. coli Rosetta, purified (Affiblue, Ni-NTA); not shown: His6, C-terminal, kept
T2 sequence (looked up): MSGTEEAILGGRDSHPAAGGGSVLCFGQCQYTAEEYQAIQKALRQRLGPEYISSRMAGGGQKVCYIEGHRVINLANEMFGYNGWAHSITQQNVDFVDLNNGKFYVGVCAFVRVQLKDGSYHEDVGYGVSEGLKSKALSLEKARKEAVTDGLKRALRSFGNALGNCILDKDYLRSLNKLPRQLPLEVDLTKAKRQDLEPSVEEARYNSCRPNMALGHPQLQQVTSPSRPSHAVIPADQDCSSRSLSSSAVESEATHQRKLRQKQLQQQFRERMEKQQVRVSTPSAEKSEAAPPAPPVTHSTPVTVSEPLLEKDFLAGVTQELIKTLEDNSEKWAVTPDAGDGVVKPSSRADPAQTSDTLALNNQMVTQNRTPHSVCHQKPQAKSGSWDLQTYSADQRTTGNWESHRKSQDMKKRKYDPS
Description: cross-linking; 1 mM DSS, 100 mM Hepes pH 7.5, 50 mM KCl, 25 °C, 1 h; cross-linked species (>250 kDa) cut from SDS-PAGE, trypsin, mass spectrometry (pLink). As to conditions: both partners purified.

For orientation: stoichiometry N means a count of units in the complex or per binding partner.

Sequence of GST-CSB-CTD (Q03468 1200-1493): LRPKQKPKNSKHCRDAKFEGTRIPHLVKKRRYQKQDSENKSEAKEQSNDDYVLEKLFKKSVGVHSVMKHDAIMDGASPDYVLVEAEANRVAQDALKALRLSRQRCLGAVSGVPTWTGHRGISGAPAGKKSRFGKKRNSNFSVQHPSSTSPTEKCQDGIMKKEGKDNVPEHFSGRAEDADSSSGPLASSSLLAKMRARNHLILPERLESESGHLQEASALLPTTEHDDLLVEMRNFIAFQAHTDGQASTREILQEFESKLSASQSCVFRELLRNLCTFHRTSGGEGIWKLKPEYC

Consider “6H-Flag-CSB (from UniProt Q03468 1-1493) (natural protein; other documents disagree on this pair)”, for which, in the series with 6H-Flag-CSB (human), the stoichiometry N turned out to be 2.

B1: DNA:RNA hybrid oligo 1/oligo 2 (DNA:RNA)
RNA: UUAAUUGGUGUGACUAAUCGAAGUUGAUACAUCGACGUUAUGGUGAUGAU
DNA: ATCATCACCATAACGTCGATGTATCAACTTCGATTAGTCACACCAATTAA
For B1, the binding result in the series with GST-CSB-CTD is listed as “binds”; with GST-CSB-AD it was “no binding”; with RAD52, “binds”; in series [1], “binds”.

B2: GST-CSB-AD (residues 337-509) (domain or fragment, human, UniProt Q03468 337-509, looked up)
chain: KRALQFQGKVGLPKARRPWESDMRPEAEGDSEGEESEYFPTEEEEEEEDDEVEGAEADLSGDGTDYELKPLPKGGKRQKKVPVQEIDDDFFPSSGEEAEAASVGEGGGGGRKVGRYRDDGDEDYYKQRLRRWNKLRLQDKEKRLKLEDDSEESDAEFDEGFKVPGFLFKKLFK
notes: Cockayne Syndrome Protein B (CSB), human, acidic domain residues 337-509; Inserted into pGEX-4T-3 with XhoI and NotI; also called GST-tagged human CSB-AD; purified CSB-AD; source: E. coli Rosetta 2, purified (glutathione sepharose 4B)
In the case of B2, in series [2], the binding result is on record as “binds”.
